According to publication PMC4220463, “Direct interaction of Plk4 with STIL ensures formation of a single procentriole per parental centriole” (Nature Communications, 2014):

Target: T1, MBP-5Myc-HsSAS-6 full length (human, UniProt Q6UVJ0 1-657)
T1 construct: HsSAS-6 full length, cloned into a modified pENTR-1A-5Myc-MBP vector; also called MBP-HsSAS-6; source: Sf9 (baculovirus), purified (amylose resin); not shown: MBP, N-terminal, kept; 5Myc, N-terminal, kept
T1 sequence (looked up): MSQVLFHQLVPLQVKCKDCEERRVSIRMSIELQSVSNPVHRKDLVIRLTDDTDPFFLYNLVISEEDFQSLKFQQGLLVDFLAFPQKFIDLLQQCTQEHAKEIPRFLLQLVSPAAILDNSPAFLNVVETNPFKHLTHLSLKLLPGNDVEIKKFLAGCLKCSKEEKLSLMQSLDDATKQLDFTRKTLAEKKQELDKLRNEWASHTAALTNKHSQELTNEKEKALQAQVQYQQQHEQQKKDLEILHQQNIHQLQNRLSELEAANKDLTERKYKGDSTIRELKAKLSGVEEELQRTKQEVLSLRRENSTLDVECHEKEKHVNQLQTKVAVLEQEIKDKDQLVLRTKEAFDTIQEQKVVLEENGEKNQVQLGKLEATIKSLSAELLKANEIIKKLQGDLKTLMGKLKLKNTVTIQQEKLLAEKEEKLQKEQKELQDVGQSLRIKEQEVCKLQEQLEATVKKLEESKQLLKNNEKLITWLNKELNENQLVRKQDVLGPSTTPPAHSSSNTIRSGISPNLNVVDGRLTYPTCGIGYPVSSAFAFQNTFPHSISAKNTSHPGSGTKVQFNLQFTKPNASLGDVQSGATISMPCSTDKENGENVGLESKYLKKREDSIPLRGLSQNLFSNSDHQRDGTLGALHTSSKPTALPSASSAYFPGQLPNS
Assay: pull-down; bacterially purified STIL fragments after an in vitro kinase reaction with Plk4ΔPEST-FLAG on anti-FLAG beads (supernatant; for N3C also the FLAG-peptide eluate) incubated with MBP-HsSAS-6 full length and pulled down with amylose resin; western blot
Conditions: both partners purified

binding result: binds
B1: STIL C fragment (a.a. 1,018–1,287) phosphorylated by Plk4ΔPEST-FLAG (domain or fragment, human, UniProt Q15468 1018-1287, looked up)
chain: NAHNVDHASVLACISPEAVISGLNCMSFANVGMSGLSPNGVDLSMEANAIALKYLNENQLSQLSVTRSNQNNCDPFSLLHINTDRSTVGLSLISPNNMSFATKKYMKRYGLLQSSDNSEDEEEPPDNADSKSEYLLNQNLRSIPEQLGGQKEPSKNDHEIINCSNCESVGTNADTPVLRNITNEVLQTKAKQQLTEKPAFLVKNLKPSPAVNLRTGKAEFTQHPEKENEGDITIFPESLQPSETLKQMNSMNSVGTFLDVKRLRQLPKLF
modifications: phosphorylated in vitro by Plk4ΔPEST-FLAG: S1061, S1116, S1181, T1238, T1250
notes: human STIL C fragment, a.a; 1,018–1,287; also called GST-HA-STIL C; C-terminal fragment of STIL; source: E. coli BL21 gold (DE3), purified (glutathione sepharose), then phosphorylated in vitro by Plk4ΔPEST-FLAG; not shown: HA, N-terminal, kept
